By pKd is commonly meant the negative decadic logarithm of the Kd, by convention in mol/L.

Our source for the pKd values is publication PMC9482650, “Quantitative fragmentomics allow affinity mapping of interactomes” (Nature Communications, 2022).

Common to all, as to experiment: holdup assay
Design in all cases: key: below the threshold = too weak to quantify, mostly under pKd 3.1 to 4
What all share (settings): plain residues with an end cap or a label only (N-terminal biotin on a linker: ado-ado)

The target of experiment [1] is T1, APBA2_2, Q99767.
T1 sequence (Q99767 654-744, limits assumed, looked up): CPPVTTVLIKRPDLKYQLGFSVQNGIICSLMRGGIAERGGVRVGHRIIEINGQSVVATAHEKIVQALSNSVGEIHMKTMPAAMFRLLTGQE

Experiment [2] deals with T2, ARHGAP21, Q5T5U3.
T2 sequence (Q5T5U3 45-169, limits assumed, looked up): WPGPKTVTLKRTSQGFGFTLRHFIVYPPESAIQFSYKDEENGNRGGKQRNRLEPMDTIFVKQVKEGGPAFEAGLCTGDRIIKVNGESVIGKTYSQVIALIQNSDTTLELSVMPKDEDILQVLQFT

In experiment [3] the target is DLG1_2, Q12959.
Sequence of DLG1_2, Q12959 (Q12959 314-412): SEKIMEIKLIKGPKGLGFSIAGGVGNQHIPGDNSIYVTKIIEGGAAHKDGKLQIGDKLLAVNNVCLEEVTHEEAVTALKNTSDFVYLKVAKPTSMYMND
Experiment [4] has as its target T3, DLG3_2, Q92796.
T3 sequence (Q92796 221-321, limits assumed, looked up): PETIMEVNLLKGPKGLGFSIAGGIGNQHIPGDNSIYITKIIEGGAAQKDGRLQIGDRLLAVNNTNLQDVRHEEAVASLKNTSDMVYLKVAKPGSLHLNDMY

The target in experiment [5] is DLG4_2, P78352.
Sequence of DLG4_2, P78352 (P78352 155-259): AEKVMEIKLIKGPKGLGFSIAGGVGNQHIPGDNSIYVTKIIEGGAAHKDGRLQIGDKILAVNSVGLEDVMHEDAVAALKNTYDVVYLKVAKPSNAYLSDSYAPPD
The target in experiment [6] is T4, DVL3, Q92997.
T4 sequence (Q92997 244-331, limits assumed, looked up): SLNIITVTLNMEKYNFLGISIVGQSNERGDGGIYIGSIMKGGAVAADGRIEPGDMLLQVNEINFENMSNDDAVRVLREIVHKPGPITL

In experiment [7] the target is FRMPD2_3, Q68DX3.
Sequence of FRMPD2_3, Q68DX3 (Q68DX3 1073-1166): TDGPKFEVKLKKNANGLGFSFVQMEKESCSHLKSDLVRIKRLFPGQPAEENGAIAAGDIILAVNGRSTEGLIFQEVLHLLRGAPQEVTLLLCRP
Experiment [8] addresses T5, HTRA4, P83105.
T5 sequence (P83105 378-476, limits assumed, looked up): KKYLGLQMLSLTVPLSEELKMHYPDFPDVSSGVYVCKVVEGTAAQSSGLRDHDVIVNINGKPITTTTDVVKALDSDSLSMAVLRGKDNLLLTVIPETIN

Experiment [9] addresses Inadl_3, Q8NI35.
Experiment [10] has as its target Inadl_5, Q8NI35.
The target of experiment [11] is LIMK2, P53671.
Sequence of LIMK2, P53671 (P53671 143-248): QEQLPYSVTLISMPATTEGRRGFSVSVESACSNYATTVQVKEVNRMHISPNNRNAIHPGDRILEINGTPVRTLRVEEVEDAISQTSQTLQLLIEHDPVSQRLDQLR
Experiment [12] concerns the target T6, LNX2_3, Q8N448.
T6 sequence (Q8N448 463-564, limits assumed, looked up): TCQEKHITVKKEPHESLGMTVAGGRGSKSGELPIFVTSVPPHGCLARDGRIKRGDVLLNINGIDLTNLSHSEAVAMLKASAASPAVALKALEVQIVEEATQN

The target in experiment [13] is T7, MPP6, Q9NZW5.
T7 sequence (Q9NZW5 125-219, limits assumed, looked up): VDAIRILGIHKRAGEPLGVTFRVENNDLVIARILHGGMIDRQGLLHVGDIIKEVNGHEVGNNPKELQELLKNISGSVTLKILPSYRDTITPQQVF

For experiment [14], the target named is T8, NHERF3_1, Q5T2W1.
T8 sequence (Q5T2W1 4-100, limits assumed, looked up): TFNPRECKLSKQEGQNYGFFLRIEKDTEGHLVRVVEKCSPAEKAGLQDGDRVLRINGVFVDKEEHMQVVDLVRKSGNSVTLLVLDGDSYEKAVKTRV

The target of experiment [15] is PDLIM1, O00151.
Sequence of PDLIM1, O00151 (O00151 1-87): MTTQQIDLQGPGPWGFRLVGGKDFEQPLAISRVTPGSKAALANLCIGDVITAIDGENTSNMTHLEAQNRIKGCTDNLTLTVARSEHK
Experiment [16] concerns the target T9, PDZD2_2, O15018.
T9 sequence (O15018 329-429, limits assumed, looked up): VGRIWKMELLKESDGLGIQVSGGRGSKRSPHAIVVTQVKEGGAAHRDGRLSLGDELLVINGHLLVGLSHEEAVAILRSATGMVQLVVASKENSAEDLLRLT

Experiment [17] deals with T10, RADIL, Q96JH8.
T10 sequence (Q96JH8 971-1071, limits assumed, looked up): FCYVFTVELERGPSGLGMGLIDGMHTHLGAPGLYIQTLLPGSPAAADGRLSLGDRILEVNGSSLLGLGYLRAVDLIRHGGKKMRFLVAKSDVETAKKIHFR

In experiment [18] the target is T11, RAPGEF6, Q8TEU7.
T11 sequence (Q8TEU7 525-625, limits assumed, looked up): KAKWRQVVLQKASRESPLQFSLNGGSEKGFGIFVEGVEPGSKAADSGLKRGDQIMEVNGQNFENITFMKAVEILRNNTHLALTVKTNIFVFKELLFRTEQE

Experiment [19] deals with T12, SNTB1, Q13884.
T12 sequence (Q13884 107-205, limits assumed, looked up): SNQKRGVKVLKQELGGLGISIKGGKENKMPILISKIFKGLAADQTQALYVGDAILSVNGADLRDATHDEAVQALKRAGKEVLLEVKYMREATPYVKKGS

The target in experiment [20] is T13, SNTG1, Q9NSN8.
T13 sequence (Q9NSN8 52-150, limits assumed, looked up): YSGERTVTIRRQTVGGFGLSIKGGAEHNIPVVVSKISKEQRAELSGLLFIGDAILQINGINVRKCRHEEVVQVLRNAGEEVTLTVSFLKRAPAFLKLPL

In experiment [21] the target is T14, TIAM2, Q8IVF5.
T14 sequence (Q8IVF5 885-986, limits assumed, looked up): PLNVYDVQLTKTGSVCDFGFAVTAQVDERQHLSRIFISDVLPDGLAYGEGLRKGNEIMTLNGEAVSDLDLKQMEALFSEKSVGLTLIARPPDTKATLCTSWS

Experiment [22] concerns the target TJP1_3, Q07157.

Sequence of Inadl_5, Q8NI35 (Q8NI35 673-780): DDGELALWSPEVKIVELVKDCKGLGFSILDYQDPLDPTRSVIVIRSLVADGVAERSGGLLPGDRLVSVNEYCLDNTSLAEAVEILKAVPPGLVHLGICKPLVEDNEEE
Sequence of Inadl_3, Q8NI35 (Q8NI35 359-469): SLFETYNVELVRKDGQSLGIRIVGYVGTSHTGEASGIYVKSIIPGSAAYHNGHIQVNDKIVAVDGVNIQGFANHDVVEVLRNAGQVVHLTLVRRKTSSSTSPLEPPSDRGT
Sequence of TJP1_3, Q07157 (Q07157 416-512): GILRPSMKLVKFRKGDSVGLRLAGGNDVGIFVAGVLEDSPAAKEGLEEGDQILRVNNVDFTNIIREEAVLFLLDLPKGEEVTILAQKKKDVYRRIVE

Turning to QRYPGNQTTC [CCL24, O00175], the pKd entry is “below the threshold” in [1]; “below the threshold” in experiment [2]; “below the threshold” in experiment [3]; 4.26 in [4]; 3.64 in experiment [5]; “below the threshold” in [6]. Further, the pKd entry in experiment [7], in experiment [8], in experiment [9], in experiment [10], in [11] and in experiment [12] was “below the threshold” in each case. In addition, the pKd result in experiment [13] was “below the threshold”; in experiment [14] it was “below the threshold”; in [15] it was “below the threshold”; in [16], “below the threshold”; in experiment [17] it was “below the threshold”; in experiment [18], 3.58. Also, the negative logarithm of the Kd (pKd) is 3.6 in experiment [19], “below the threshold” in experiment [20], 4.09 in [21] and “below the threshold” in experiment [22].
For KLQNPNQSVV [TYRP1, P17643], the pKd entry in [1] is “below the threshold”; in [2] it was 3.98; in [3] it was 4.06; in [4], 3.86; in experiment [5], 4.11; in experiment [6], “below the threshold”. Further, the pKd result in experiment [7] is “below the threshold”; in experiment [8], 3.94; in [9], “below the threshold”; in experiment [10] it was “below the threshold”; in experiment [11], “below the threshold”; in experiment [12], “below the threshold”. Besides, the pKd result was “below the threshold” in experiment [13]; “below the threshold” in [14]; “below the threshold” in experiment [15]; 4.57 in [16]; 4.05 in [17]; “below the threshold” in [18]. Further, the pKd in experiment [19] was 3.72; in [20], 3.47; in [21], “below the threshold”; in [22], “below the threshold”.
HYPASPDSWV [CTNND2, Q9UQB3]: the pKd result was “below the threshold” in experiment [1]; “below the threshold” in [2]; 4.65 in experiment [3]; 4.3 in experiment [4]; 4.72 in experiment [5]; 4.04 in [6]. Further, the pKd result in experiment [7] is “below the threshold”; in experiment [8] it was 4.06; in [9], “below the threshold”; in [10], 3.64; in experiment [11], “below the threshold”; in [12] it was “below the threshold”. The pKd result is “below the threshold” in experiment [13]; “below the threshold” in experiment [14]; 4.06 in experiment [15]; 5.99 in experiment [16]; 5.02 in experiment [17]; “below the threshold” in experiment [18]. In addition, the pKd in experiment [19] was 4.23; in experiment [20], 4.64; in experiment [21], “below the threshold”; in experiment [22], 3.81.
For HLSTRQGTCV [ATRNL1, Q5VV63], the pKd entry in experiment [1] was “below the threshold”; in [2] it was “below the threshold”; in experiment [3], 4.55; in [4], 4.22; in experiment [5], 4.43; in [6], “below the threshold”. Further, the pKd result in experiment [7] was “below the threshold”; in experiment [8], 4.33; in [9] it was “below the threshold”; in [10], 4.04; in experiment [11], “below the threshold”; in experiment [12] it was “below the threshold”. Moreover, the pKd result in [13] is “below the threshold”; in experiment [14], 3.87; in experiment [15], “below the threshold”; in experiment [16] it was 4.99; in experiment [17] it was 4.28; in experiment [18] it was “below the threshold”. Also, the pKd was 3.99 in experiment [19], “below the threshold” in [20], “below the threshold” in [21] and “below the threshold” in [22].
As to VCMGDHWFDV [PRKN, O60260], the pKd result in experiment [1] was “below the threshold”; in experiment [2] it was 4.08; in [3] it was “below the threshold”; in [4] it was “below the threshold”; in experiment [5], “below the threshold”; in [6], 3.59. Further, the pKd was 3.58 in experiment [7]; 3.98 in [8]; 4.9 in experiment [9]; “below the threshold” in experiment [10]; “below the threshold” in [11]; “below the threshold” in experiment [12]. The pKd was 4.01 in [13]; “below the threshold” in [14]; 3.83 in experiment [15]; 4.57 in [16]; 4.44 in experiment [17]; “below the threshold” in experiment [18]. The pKd entry in [19] is “below the threshold”; in experiment [20], 3.81; in [21], “below the threshold”; in [22], “below the threshold”.
